Experimental data from patent US20190359687A1 (Bayer, published 2019).
Where a chain is given by its changes, count along the chain named. Names may count otherwise. No end group written: not given here.

B1: TPP-7790, affinity matured 6C12 Fab (Fab, V domains shown)
VH: EVQLVQSGAEVKKPGASVKVSCKASGYTFTTYAIHWVRQAPGQGLEWMGYINPSSGYTRYNPKFKHRVTMTRDKSTSTAYMELRSLRSDDTAVYYCWTGTRDYWGQGTTVTVSS
VL: DIQLTQSPSFLSASVGDRVTITCRASSSVRYIYWFQQKPGKAPKLLIYATSFLQSGVPSRFSGSGSGTEYTLTISSLQPEDFATYYCHQRNSFPYTFGQGTKLEIK
notes: Tested as Fab with a 6xHIS tag
B2: TPP-5906, humanized and germlined 6C12 Fab; VL: (S24R, A26S, S49A, P54Q, F95Y); VH: (I48M, D56G, D66G, L70M, T72R) (Fab, V domains shown)
VH: B1 VH with A33T, H66G, W97Q
VL: DIQLTQSPSFLSASVGDRVTITCRASSSVSYIYWFQQKPGKAPKLLIYATSTLQSGVPSRFSGSGSGTEYTLTISSLQPEDFATYYCHQRNSFPYTFGQGTKLEIKR
notes: The text says that a 6xHIS tag is present on the Fabs in the peptide ELISA; it is not in the printed chains

How the values were obtained:
[1] = molecular target: T1, human glycophorin A on human red blood cells or red blood cell membranes (human, UniProt P02724 20-150); assay: Fab on intact human RBC, unbound Fab by ELISA; 60 min after 200-fold dilution
T1 construct: whole, on cells; also called hRBC; human RBC membranes
T1 sequence (looked up): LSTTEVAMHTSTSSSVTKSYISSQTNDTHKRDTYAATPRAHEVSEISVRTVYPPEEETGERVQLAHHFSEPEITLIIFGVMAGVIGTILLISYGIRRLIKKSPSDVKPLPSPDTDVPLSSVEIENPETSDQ
Procedure: (§1) The binding of affinity matured Fab antibodies to intact human RBC was also measured. Human RBC were isolated from fresh anti-coagulated normal human blood by centrifugation through a ficol gradient and washing in PBS buffer. RBC diluted to 1/10th of normal hematocrit were incubated with purified Fab antibodies at a final concentration of 7 ug/ml for 1 hour at room temperature on a rotating shaker after which a sample was taken and the RBC were pelleted by centrifugation and the supernatant was collected. The remaining RBC suspension was diluted 200-fold in PBS buffer and incubated for a total of 2 hours at room temperature on a rotating shaker and samples were removed at 0, 5 min, 20 min, 1 h and 2 h and the RBC pelleted and the supernatant collected. The amount of Fab in the supernatants was then measured using an ELISA assay and the results used to calculate the percentage of the input Fab that was bound to the RBC. […] The percentage that remains bound after 200-fold dilution of the RBC suspension is an indication of the overall strength of the binding to human RBC.

[2] = molecular target: T2, GP13 peptide of the human GPA ectodomain (human, not fully specified (N-terminus)); assay: ELISA, Fab 0.5 ug/ml on biotin-peptide on streptavidin plate
T2 peptide: PPEEETGE
Source text: (§2) These peptides were attached to the surface of a streptavidin coated plate via a biotin moiety that was present at the N-terminus of each peptide.

[3] = molecular target: T3, GP10 peptide of the human GPA ectodomain (human, not fully specified (N-terminus)); assay: as above
T3 peptide: TVYPPEEE
Source text: as §2

[4] = molecular target: T4, GP16 peptide of the human GPA ectodomain (human, not fully specified (N-terminus)); assay: as above
T4 peptide: EETGERVQ
Source text: as §2

[5] = molecular target: T5, GP5 peptide of the human GPA ectodomain (human, N-terminal biotin); assay: as above
T5 construct: Residues 42 to 61 of the human GPA extracellular domain
Source text: as §2

[6] = molecular target: T6, GP9 peptide of the human GPA ectodomain (human, not fully specified (N-terminus)); assay: as above
T6 peptide: RTVYPPEE
Source text: as §2

[7] = molecular target: T7, GP14 peptide of the human GPA ectodomain (human, not fully specified (N-terminus)); assay: as above
T7 peptide: PEEETGER
Source text: as §2

[8] = molecular target: T8, GP8 peptide of the human GPA ectodomain (human, not fully specified (N-terminus)); assay: as above
T8 peptide: VRTVYPPE
Source text: as §2

[9] = molecular target: T9, GP15 peptide of the human GPA ectodomain (human, not fully specified (N-terminus)); assay: as above
T9 peptide: EEETGERV
Source text: as §2

[10] = molecular target: T10, GP7 peptide of the human GPA ectodomain (human, not fully specified (N-terminus)); assay: as above
T10 peptide: SVRTVYPP
Source text: as §2

[11] = molecular target: T11, GP12 peptide of the human GPA ectodomain (human, not fully specified (N-terminus)); assay: as above
T11 peptide: YPPEEETG
Source text: as §2

[12] = molecular target: T12, GP11 peptide of the human GPA ectodomain (human, not fully specified (N-terminus)); assay: as above
T12 peptide: VYPPEEET
Source text: as §2

[13] = molecular target: T1, human glycophorin A on human red blood …; assay: Fab on intact human RBC, unbound Fab by ELISA; 120 min after 200-fold dilution
Procedure: as §1

[14] = molecular target: T1, human glycophorin A on human red blood …; assay: Fab 7 ug/ml on intact human RBC, unbound Fab by ELISA; pre-dilution
Procedure: as §1

[15] = molecular target: T2, GP13 peptide of the human GPA ectodomain; assay: ELISA, Fab 0.05 ug/ml on biotin-peptide on streptavidin plate
Source text: as §2

[16] = molecular target: T3, GP10 peptide of the human GPA ectodomain; assay: as above
Source text: as §2

[17] = molecular target: T4, GP16 peptide of the human GPA ectodomain; assay: as above
Source text: as §2

[18] = molecular target: T5, GP5 peptide of the human GPA ectodomain; assay: as above
Source text: as §2

[19] = molecular target: T6, GP9 peptide of the human GPA ectodomain; assay: as above
Source text: as §2

[20] = molecular target: T7, GP14 peptide of the human GPA ectodomain; assay: as above
Source text: as §2

[21] = molecular target: T8, GP8 peptide of the human GPA ectodomain; assay: as above
Source text: as §2

[22] = molecular target: T9, GP15 peptide of the human GPA ectodomain; assay: as above
Source text: as §2

[23] = molecular target: T10, GP7 peptide of the human GPA ectodomain; assay: as above
Source text: as §2

[24] = molecular target: T11, GP12 peptide of the human GPA ectodomain; assay: as above
Source text: as §2

[25] = molecular target: T12, GP11 peptide of the human GPA ectodomain; assay: as above
Source text: as §2

[26] = molecular target: T1, human glycophorin A on human red blood …; assay: SPR (Biacore), Fab on human RBC membranes;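 also: human RBC membranes captured on an L1 sensor chip, Fab fragments passed over as analyte, binding kinetics read by surface plasmon resonance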
Procedure: Kinetic analysis of the antibody binding to human red blood cell membranes was also performed using surface plasmon resonance (SPR) using a Biacore instrument. In this assay membranes prepared from human red blood cells were attached to a L1 sensor matrix and antibodies were flowed over the RBC membranes.
The binding kinetics of the affinity matured Fab antibodies was also measured.

[27] = molecular target: T1, human glycophorin A on human red blood …; assay: Fab on intact human RBC, unbound Fab by ELISA; 20 min after 200-fold dilution

Binder | percentage of input antibody bound [1] [%] | binding signal in ELISA (relative light units) [2] [RLU] | binding signal in ELISA (relative light units) [3] [RLU] | binding signal in ELISA (relative light units) [4] [RLU] | binding signal in ELISA (relative light units) [5] [RLU] | binding signal in ELISA (relative light units) [6] [RLU] | binding signal in ELISA (relative light units) [7] [RLU] | binding signal in ELISA (relative light units) [8] [RLU] | binding signal in ELISA (relative light units) [9] [RLU] | binding signal in ELISA (relative light units) [10] [RLU] | binding signal in ELISA (relative light units) [11] [RLU] | binding signal in ELISA (relative light units) [12] [RLU] | percentage of input antibody bound [13] [%] | percentage of input antibody bound [14] [%] | binding signal in ELISA (relative light units) [15] [RLU] | binding signal in ELISA (relative light units) [16] [RLU] | binding signal in ELISA (relative light units) [17] [RLU] | binding signal in ELISA (relative light units) [18] [RLU] | binding signal in ELISA (relative light units) [19] [RLU] | binding signal in ELISA (relative light units) [20] [RLU] | further results
B1 | 87 | -1 | 38 | 0 | 6990 | 169 | 0 | 3370 | 0 | 1 | 0 | 1 | 88 | 91 | 0 | 7 | -1 | 2880 | 7 | -1 | binding signal in ELISA (relative light units) [21]: 83 RLU; binding signal in ELISA (relative light units) [22]: -1 RLU; binding signal in ELISA (relative light units) [23]: 0 RLU; binding signal in ELISA (relative light units) [24]: -1 RLU; binding signal in ELISA (relative light units) [25]: 0 RLU; kon [26]: 8.58e+06 M⁻¹ s⁻¹; percentage of input antibody bound [27]: 88%
B2 | 8 | -1 | 0 | -1 | 6680 | 1 | -1 | 1 | -1 | 0 | -1 | 0 | 8 | 93 | -1 | 0 | 0 | 2000 | -1 | -1 | binding signal in ELISA (relative light units) [21]: -1 RLU; binding signal in ELISA (relative light units) [22]: -1 RLU; binding signal in ELISA (relative light units) [23]: -1 RLU; binding signal in ELISA (relative light units) [24]: -1 RLU; binding signal in ELISA (relative light units) [25]: -1 RLU; Kd [26]: 0.707 nM; koff [26]: 0.00504 s⁻¹; kon [26]: 7.14e+06 M⁻¹ s⁻¹; percentage of input antibody bound [27]: 4%
